{"source": "patent US11655308B2", "about": "“HM-3 fusion protein and application thereof” (TASLY BIOPHARMACEUTICALS CO., LTD., priority 2017, dated 2023)", "key": {"[1]": {"conditions": "rat, in vivo, sc", "experimental": "(§1) (1) 18 SD rats (half male and half female) were purchased and fed for one week.\n(§2) (2) Rats were divided into 3 groups, half male and half female, and weight of rats were recorded respectively.\n(§3) The blood was centrifuged at 12000 rpm/min to take 200 μL of supernatant, then the supernatant was diluted with PBS solution according to a ratio of 1:3, and finally placed in an EP tube and stored in a −80° C. refrigerator.\n(§4) (4) Biological samples were measured by double-antibody sandwich ELISA.\n(§5) (1) Coating, HM-3 monoclonal antibody was diluted with a coating buffer (CBS) in certain concentration, added to an ELISA plate and coated overnight.\n(§6) (2) Plate washing, the coating buffer was discarded, and the plate was washed by PBST for 3 times, and then dried by patting.\n(§7) (3) Sealing, a blocking buffer was added for sealing at 37.5° C., the plate washing process was repeated and the plate was dried by patting.\n(§8) (4) Addition of samples to be measured, the samples to be measured were added to the ELISA plate with multiple wells, and then incubated at 37.5° C.; the plate washing process was repeated and the plate was dried by patting.\n(§9) (5) Addition of a secondary antibody, the secondary antibody diluted proportionally was added for incubation at 37.5° C. The plate washing process was repeated and the plate was dried by patting.\n(§10) (6) Addition of the enzyme-labeled secondary antibody for reaction, the HRP-labeled secondary antibody which was diluted by 5% skim milk powder solution according to certain proportion was added for incubation at 37.5° C. The plate washing process was repeated and the plate was dried by patting.\n(§11) (7) Addition of a substrate, a TMB substrate in certain volume L was added for reaction in the dark.\n(§12) (8) Termination of the reaction, a certain amount of stop buffer was added to terminate the reaction.\n(§13) (9) Detection, read OD450 nm with a microplate reader."}, "[2]": {"assay": "Pharmacokinetics after single subcutaneous injection (double-antibody sandwich ELISA)", "experimental": "as §1, §2, §3, §4, §5, §6, §7, §8, §9, §10, §11, §12, §13"}}, "note": "Several values for one entry are separate records, joined by “and”; a condition that tells them apart may be missing. Equal entries are not always repeated. Where two headings read alike, the source gives them in different places.", "data": [{"substance": "mIgG4-Fc-(GGGGS)3-HM-3 [TSL-4]", "values": [{"measurement": "Vd/F", "setting": "[1]; 4.17 mg/kg", "value": 4.200, "unit": "L/kg"}, {"measurement": "Vd/F", "setting": "[1]; 12.5 mg/kg", "value": 3.177, "unit": "L/kg"}, {"measurement": "Vd/F", "setting": "[1]; 37.5 mg/kg", "value": 4.967, "unit": "L/kg"}, {"measurement": "Plasma concentration", "setting": "[2]; 4.17 mg/kg sc, 0.00 h, Mean", "value": 0, "unit": "µg/mL"}, {"measurement": "Plasma concentration", "setting": "[2]; 4.17 mg/kg sc, 0.00 h, single rats No. 1-5", "value": 0, "unit": "µg/mL"}, {"measurement": "Plasma concentration", "setting": "[2]; 4.17 mg/kg sc, 0.50 h, Mean", "value": 0.0818, "unit": "µg/mL"}, {"measurement": "Plasma concentration", "setting": "[2]; 4.17 mg/kg sc, 0.50 h, single rats No. 1-5", "value": "0.00626 µg/mL and 0.0985 µg/mL and 0.131 µg/mL and 0.0504 µg/mL and 0.122 µg/mL"}, {"measurement": "Plasma concentration", "setting": "[2]; 4.17 mg/kg sc, 1.00 h, Mean", "value": 0.135, "unit": "µg/mL"}, {"measurement": "Plasma concentration", "setting": "[2]; 4.17 mg/kg sc, 1.00 h, single rats No. 1-5", "value": "0.0588 µg/mL and 0.162 µg/mL and 0.168 µg/mL and 0.136 µg/mL and 0.151 µg/mL"}, {"measurement": "Plasma concentration", "setting": "[2]; 4.17 mg/kg sc, 3.00 h, Mean", "value": 0.388, "unit": "µg/mL"}, {"measurement": "Plasma concentration", "setting": "[2]; 4.17 mg/kg sc, 3.00 h, single rats No. 1-5", "value": "0.238 µg/mL and 0.382 µg/mL and 0.412 µg/mL and 0.338 µg/mL and 0.570 µg/mL"}, {"measurement": "Plasma concentration", "setting": "[2]; 4.17 mg/kg sc, 5.00 h, Mean", "value": 0.573, "unit": "µg/mL"}, {"measurement": "Plasma concentration", "setting": "[2]; 4.17 mg/kg sc, 5.00 h, single rats No. 1-5", "value": "0.667 µg/mL and 0.482 µg/mL and 0.575 µg/mL and 0.374 µg/mL and 0.766 µg/mL"}, {"measurement": "Plasma concentration", "setting": "[2]; 4.17 mg/kg sc, 6.00 h, Mean", "value": 0.894, "unit": "µg/mL"}, {"measurement": "Plasma concentration", "setting": "[2]; 4.17 mg/kg sc, 6.00 h, single rats No. 1-5", "value": "1.278 µg/mL and 0.699 µg/mL and 1.024 µg/mL and 0.491 µg/mL and 0.978 µg/mL"}, {"measurement": "Plasma concentration", "setting": "[2]; 4.17 mg/kg sc, 7.00 h, Mean", "value": 1.297, "unit": "µg/mL"}, {"measurement": "Plasma concentration", "setting": "[2]; 4.17 mg/kg sc, 7.00 h, single rats No. 1-5", "value": "1.696 µg/mL and 0.903 µg/mL and 1.556 µg/mL and 0.914 µg/mL and 1.415 µg/mL"}, {"measurement": "Plasma concentration", "setting": "[2]; 4.17 mg/kg sc, 8.00 h, Mean", "value": 1.356, "unit": "µg/mL"}, {"measurement": "Plasma concentration", "setting": "[2]; 4.17 mg/kg sc, 8.00 h, single rats No. 1-5", "value": "1.383 µg/mL and 1.584 µg/mL and 1.319 µg/mL and 1.407 µg/mL and 1.088 µg/mL"}, {"measurement": "Plasma concentration", "setting": "[2]; 4.17 mg/kg sc, 10.00 h, Mean", "value": 1.058, "unit": "µg/mL"}, {"measurement": "Plasma concentration", "setting": "[2]; 4.17 mg/kg sc, 10.00 h, single rats No. 1-5", "value": "1.192 µg/mL and 1.305 µg/mL and 0.854 µg/mL and 0.960 µg/mL and 0.980 µg/mL"}, {"measurement": "Plasma concentration", "setting": "[2]; 4.17 mg/kg sc, 12.00 h, Mean", "value": 0.771, "unit": "µg/mL"}, {"measurement": "Plasma concentration", "setting": "[2]; 4.17 mg/kg sc, 12.00 h, single rats No. 1-5", "value": "0.947 µg/mL and 0.964 µg/mL and 0.712 µg/mL and 0.363 µg/mL and 0.867 µg/mL"}, {"measurement": "Plasma concentration", "setting": "[2]; 4.17 mg/kg sc, 16.00 h, Mean", "value": 0.468, "unit": "µg/mL"}, {"measurement": "Plasma concentration", "setting": "[2]; 4.17 mg/kg sc, 16.00 h, single rats No. 1-5", "value": "0.767 µg/mL and 0.682 µg/mL and 0.237 µg/mL and 0.183 µg/mL and 0.471 µg/mL"}, {"measurement": "Plasma concentration", "setting": "[2]; 4.17 mg/kg sc, 20.00 h, Mean", "value": 0.205, "unit": "µg/mL"}, {"measurement": "Plasma concentration", "setting": "[2]; 4.17 mg/kg sc, 20.00 h, single rats No. 1-5", "value": "0.249 μg/mL and 0.252 μg/mL and 0.179 μg/mL and 0.172 μg/mL (2×)"}, {"measurement": "Plasma concentration", "setting": "[2]; 4.17 mg/kg sc, 24.00 h, Mean", "value": 0.100, "unit": "µg/mL"}, {"measurement": "Plasma concentration", "setting": "[2]; 4.17 mg/kg sc, 24.00 h, single rats No. 1-5", "value": "0.0638 μg/mL and 0.0738 μg/mL and 0.0533 μg/mL and 0.155 μg/mL (2×)"}, {"measurement": "Plasma concentration", "setting": "[2]; 4.17 mg/kg sc, 28.00 h, Mean", "value": 0.0667, "unit": "µg/mL"}, {"measurement": "Plasma concentration", "setting": "[2]; 4.17 mg/kg sc, 28.00 h, single rats No. 1-5", "value": "0.0454 μg/mL and 0.0406 μg/mL and 0.0381 μg/mL and 0.105 μg/mL (2×)"}, {"measurement": "Plasma concentration", "setting": "[2]; 4.17 mg/kg sc, 41.00 h, Mean", "value": 0.0545, "unit": "µg/mL"}, {"measurement": "Plasma concentration", "setting": "[2]; 4.17 mg/kg sc, 41.00 h, single rats No. 1-5", "value": "0.0298 μg/mL and 0.0288 μg/mL and 0.0231 μg/mL and 0.0954 μg/mL (2×)"}, {"measurement": "Plasma concentration", "setting": "[2]; 4.17 mg/kg sc, 53.00 h, Mean", "value": 0.0366, "unit": "µg/mL"}, {"measurement": "Plasma concentration", "setting": "[2]; 4.17 mg/kg sc, 53.00 h, single rats No. 1-5", "value": "0.0108 µg/mL and 0.0074 µg/mL and 0.0171 µg/mL and 0.0669 µg/mL and 0.0809 µg/mL"}, {"measurement": "Plasma concentration", "setting": "[2]; 4.17 mg/kg sc, 65.00 h, Mean", "value": 0.0233, "unit": "µg/mL"}, {"measurement": "Plasma concentration", "setting": "[2]; 4.17 mg/kg sc, 65.00 h, single rats No. 1-5", "value": "0.008536 µg/mL and 0.003139 µg/mL and 0.0168 µg/mL and 0.0440 µg/mL and 0.044 µg/mL"}, {"measurement": "Plasma concentration", "setting": "[2]; 4.17 mg/kg sc, 77.00 h, Mean", "value": 0.0114, "unit": "µg/mL"}, {"measurement": "Plasma concentration", "setting": "[2]; 4.17 mg/kg sc, 77.00 h, single rats No. 1-5", "value": "0.005846 µg/mL and 0.002666 µg/mL and 0.0125 µg/mL and 0.0181 µg/mL and 0.01811 µg/mL"}, {"measurement": "AUC 0-77", "setting": "[2]; 4.17 mg/kg single sc", "value": 7055.774, "unit": "ng·h/mL"}, {"measurement": "AUC 0-∞", "setting": "[2]; 4.17 mg/kg single sc", "value": "9006.668 ± 3859.519", "unit": "ng·h/mL"}, {"measurement": "MRT 0-77", "setting": "[2]; 4.17 mg/kg single sc", "value": 14.880, "unit": "h"}, {"measurement": "MRT 0-∞", "setting": "[2]; 4.17 mg/kg single sc", "value": 17.330, "unit": "h"}, {"measurement": "Tmax", "setting": "[2]; 4.17 mg/kg single sc", "value": "7.4 ± 0.55", "unit": "h"}, {"measurement": "ka", "setting": "[2]; 4.17 mg/kg single sc", "value": 0.258}, {"measurement": "t½ka (absorption half-life)", "setting": "[2]; 4.17 mg/kg single sc", "value": 2.265, "unit": "h"}, {"measurement": "t½ke (elimination half-life)", "setting": "[2]; 4.17 mg/kg single sc", "value": "30.710 ± 3.100", "unit": "h"}, {"measurement": "α, ke", "setting": "[2]; 4.17 mg/kg single sc", "value": 0.090}, {"measurement": "Plasma concentration", "setting": "[2]; 12.5 mg/kg sc, 0.50 h, Mean", "value": 0.848, "unit": "µg/mL"}, {"measurement": "Plasma concentration", "setting": "[2]; 12.5 mg/kg sc, 0.50 h, single rats No. 1-5", "value": "0.176 µg/mL and 0.741 µg/mL and 0.995 µg/mL and 0.598 µg/mL and 1.728 µg/mL"}, {"measurement": "Plasma concentration", "setting": "[2]; 12.5 mg/kg sc, 1.00 h, Mean", "value": 1.877, "unit": "µg/mL"}, {"measurement": "Plasma concentration", "setting": "[2]; 12.5 mg/kg sc, 1.00 h, single rats No. 1-5", "value": "0.740 µg/mL and 1.435 µg/mL and 1.875 µg/mL and 1.153 µg/mL and 4.180 µg/mL"}, {"measurement": "Plasma concentration", "setting": "[2]; 12.5 mg/kg sc, 3.00 h, Mean", "value": 4.078, "unit": "µg/mL"}, {"measurement": "Plasma concentration", "setting": "[2]; 12.5 mg/kg sc, 3.00 h, single rats No. 1-5", "value": "1.459 µg/mL and 2.970 µg/mL and 4.100 µg/mL and 2.070 µg/mL and 9.793 µg/mL"}, {"measurement": "Plasma concentration", "setting": "[2]; 12.5 mg/kg sc, 5.00 h, Mean", "value": 7.518, "unit": "µg/mL"}, {"measurement": "Plasma concentration", "setting": "[2]; 12.5 mg/kg sc, 5.00 h, single rats No. 1-5", "value": "2.030 µg/mL and 5.512 µg/mL and 8.329 µg/mL and 6.748 µg/mL and 14.973 µg/mL"}, {"measurement": "Plasma concentration", "setting": "[2]; 12.5 mg/kg sc, 6.00 h, Mean", "value": 9.970, "unit": "µg/mL"}, {"measurement": "Plasma concentration", "setting": "[2]; 12.5 mg/kg sc, 6.00 h, single rats No. 1-5", "value": "2.337 µg/mL and 7.869 µg/mL and 11.753 µg/mL and 9.720 µg/mL and 18.172 µg/mL"}, {"measurement": "Plasma concentration", "setting": "[2]; 12.5 mg/kg sc, 7.00 h, Mean", "value": 13.413, "unit": "µg/mL"}, {"measurement": "Plasma concentration", "setting": "[2]; 12.5 mg/kg sc, 7.00 h, single rats No. 1-5", "value": "3.372 µg/mL and 8.202 µg/mL and 11.959 µg/mL and 7.582 µg/mL and 35.951 µg/mL"}, {"measurement": "Plasma concentration", "setting": "[2]; 12.5 mg/kg sc, 8.00 h, Mean", "value": 10.626, "unit": "µg/mL"}, {"measurement": "Plasma concentration", "setting": "[2]; 12.5 mg/kg sc, 8.00 h, single rats No. 1-5", "value": "4.395 µg/mL and 6.684 µg/mL and 10.711 µg/mL and 6.343 µg/mL and 24.998 µg/mL"}, {"measurement": "Plasma concentration", "setting": "[2]; 12.5 mg/kg sc, 10.00 h, Mean", "value": 8.284, "unit": "µg/mL"}, {"measurement": "Plasma concentration", "setting": "[2]; 12.5 mg/kg sc, 10.00 h, single rats No. 1-5", "value": "3.014 µg/mL and 5.271 µg/mL and 9.706 µg/mL and 6.000 µg/mL and 17.430 µg/mL"}, {"measurement": "Plasma concentration", "setting": "[2]; 12.5 mg/kg sc, 12.00 h, Mean", "value": 7.390, "unit": "µg/mL"}, {"measurement": "Plasma concentration", "setting": "[2]; 12.5 mg/kg sc, 12.00 h, single rats No. 1-5", "value": "2.663 µg/mL and 4.448 µg/mL and 7.496 µg/mL and 5.562 µg/mL and 16.780 µg/mL"}, {"measurement": "Plasma concentration", "setting": "[2]; 12.5 mg/kg sc, 16.00 h, Mean", "value": 6.292, "unit": "µg/mL"}]}]}
